Laboratory results published in the supplement of paper PMC10126150.
± gives the standard deviation of the averaged measurements.

System: ATP
Experiment: switch fluorescence ratio, 500 uM ATP over buffer (Cy3 cluster intensity, sum of 5 cycles each) (fold (ratio)); higher = stronger signal-on switching upon ATP binding; sequences stand for … in TCGTCGGCAGCGTCAGATGTGTATAAGAGACAGTTTTTTTTTTTTTTTTTTTTTTTTT…TC
Conditions: aptamer strand: ATP DNA aptamer (quencher-CACCTGGGGGAGTATTGCGGAGGAAGG + anchor), 100 nM annealed; ATP concentration: 500 uM
Method in brief: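 Five buffer/ATP imaging cycles were run on Cy3-labelled switching-strand clusters on a modified Illumina MiSeq flow-cell, with NaOH stripping and re-annealing between cycles. In each cycle, clusters annealed to 100 nM quencher-labelled ATP aptamer were imaged in selection buffer, then after 15 min with 500 uM ATP at 22 °C. Per cluster, the fluorescence ratio is summed target-cycle over summed buffer-cycle Cy3 intensity, averaged per switch-domain sequence. Only clusters within 100-1000 RFU were kept.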
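Further: ATP exposure 15 min at 22 °C before imaging.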

| Sequence | switch fluorescence ratio |
| --- | --- |
| GCAAGGCGGA | 1.03 ± 0.0091 |
| GCAATCGGAG | 1.27 ± 0.025 |
| GCAATGGTGG | 1.04 ± 0.035 |
| GCAATTGCCT | 0.989 ± 0.029 |
| GCACCACCGT | 1.15 ± 0.014 |
| GCACCATCCA | 1.03 ± 0.013 |
| GCACCTGGAT | 1.01 ± 0.027 |
| GCACCTGGGC | 0.991 ± 0.039 |
| GCACGAGCCC | 1.316 ± 0.008 |
| GCACGAGGGG | 0.979 ± 0.047 |
| GCACGGACAT | 1.4 ± 0.031 |
| GCACGGTACG | 1 ± 0.031 |
| GCACGGTCGG | 1.009 ± 0.0021 |
| GCACGTATTC | 1.113 ± 0.0047 |
| GCACGTGGTC | 1.04 ± 0.019 |
| GCACGTGTTC | 1.119 ± 0.0096 |
| GCACTAGACT | 1.07 ± 0.029 |
| GCACTCGGGA | 1.03 ± 0.027 |
| GCACTGGTAA | 1.023 ± 0.0071 |
| GCACTTGGTG | 1.02 ± 0.024 |
| GCACTTTAGC | 1.03 ± 0.018 |
| GCAGACCTAT | 0.989 ± 0.058 |
| GCAGACGTTC | 1.012 ± 0.005 |

| Sequence | switch fluorescence ratio |
| --- | --- |
| GCAGAGGGTC | 0.9998 ± 0.0066 |
| GCAGAGTGTT | 1.02 ± 0.027 |
| GCAGATTAGC | 1.033 ± 0.0044 |
| GCAGCAAAAG | 1.029 ± 0.0029 |
| GCAGCAATTG | 3.03 ± 0.19 |
| GCAGCACGCA | 1.03 ± 0.032 |
| GCAGCTGGTT | 0.994 ± 0.026 |
| GCAGCTTCGG | 0.984 ± 0.014 |
| GCAGGAAGAC | 3.48 ± 0.81 |
| GCAGGACGAC | 2.38 ± 0.49 |
| GCAGGAGCCT | 1.01 ± 0.011 |
| GCAGGATGGG | 0.98 ± 0.019 |
| GCAGGCCGAG | 1.05 ± 0.037 |
| GCAGGGGAAG | 0.99 ± 0.019 |
| GCAGGGGCTC | 1 ± 0.027 |
| GCAGGGGGTC | 1 ± 0.021 |
| GCAGGGTTCT | 0.9721 ± 0.0021 |
| GCAGGTTTGG | 0.991 ± 0.033 |
| GCAGTAGTGG | 1.2 ± 0.33 |
| GCAGTATCAC | 1.05 ± 0.028 |
| GCAGTATGGT | 0.985 ± 0.016 |
| GCAGTGCGCC | 1.2 ± 0.05 |
| GCAGTTAAGT | 1 ± 0.037 |

| Sequence | switch fluorescence ratio |
| --- | --- |
| GCAGTTAGGG | 0.995 ± 0.079 |
| GCAGTTGGTA | 0.989 ± 0.02 |
| GCAGTTGGTG | 0.958 ± 0.043 |
| GCAGTTTTGG | 0.992 ± 0.015 |
| GCATAAAACT | 1.04 ± 0.014 |
| GCATAAACGC | 1.06 ± 0.044 |
| GCATAAAGGA | 0.9684 ± 0.0075 |
| GCATAAGGTT | 0.993 ± 0.031 |
| GCATAGCGCC | 1.04 ± 0.013 |
| GCATAGGGCG | 1.01 ± 0.018 |
| GCATATCTAG | 1.03 ± 0.041 |
| GCATCAATTT | 1.016 ± 0.0012 |
| GCATCGGGGT | 1 ± 0.032 |
| GCATCGTAGA | 1.07 ± 0.015 |
| GCATCTACGG | 1.02 ± 0.019 |
| GCATCTCAGC | 0.991 ± 0.038 |
| GCATGAGCTG | 0.981 ± 0.014 |
| GCATGATGCG | 0.994 ± 0.013 |
| GCATGATGGC | 1.03 ± 0.063 |
| GCATGGAAGG | 1.013 ± 0.0065 |
| GCATGGGGTA | 1.05 ± 0.051 |
| GCATGGTGGC | 1.013 ± 0.0028 |
| GCATGTGGCT | 0.994 ± 0.024 |

| Sequence | switch fluorescence ratio |
| --- | --- |
| GCATGTGGGT | 0.986 ± 0.017 |
| GCATGTTGGG | 1.01 ± 0.029 |
| GCATTAAAAT | 0.9578 ± 0.0013 |
| GCATTACCGG | 1.03 ± 0.04 |
| GCATTAGGGC | 1.07 ± 0.14 |
| GCATTATATG | 1 ± 0.03 |
| GCATTATGGG | 1.02 ± 0.034 |
| GCATTATTCA | 1.04 ± 0.014 |
| GCATTGAGGT | 1 ± 0.013 |
| GCATTGCGGC | 0.991 ± 0.019 |
| GCATTGGATA | 1 ± 0.014 |
| GCATTTTGGG | 0.986 ± 0.033 |
| GCATTTTGTT | 0.986 ± 0.019 |
| GCATTTTTAC | 1.19 ± 0.023 |
| GCCAAAAGGG | 1.015 ± 0.008 |
| GCCAAAGGGA | 1.01 ± 0.063 |
| GCCACGAGGG | 1.025 ± 0.0062 |
| GCCACGGAGT | 0.964 ± 0.015 |
| GCCACTTACA | 1.36 ± 0.025 |
| GCCAGACGTG | 0.995 ± 0.017 |
| GCCAGGGGAG | 1.1 ± 0.12 |
| GCCAGGGGTG | 1.47 ± 0.033 |
| GCCAGGGTGG | 1.01 ± 0.039 |

| Sequence | switch fluorescence ratio |
| --- | --- |
| GCCAGTCTTT | 1 ± 0.012 |
| GCCATATACA | 1.035 ± 0.01 |
| GCCATGGCTT | 1.01 ± 0.0039 |
| GCCATGTTGG | 1.004 ± 0.0033 |
| GCCATTAAAC | 0.972 ± 0.03 |
| GCCATTAGAC | 1.04 ± 0.049 |
| GCCATTAGGA | 1.015 ± 0.0049 |
| GCCCAAAAGA | 1.02 ± 0.02 |
| GCCCACCGAT | 1.06 ± 0.031 |
| GCCCACGGGA | 1.07 ± 0.039 |
| GCCCAGTCAT | 0.997 ± 0.023 |
| GCCCAGTCCT | 1.03 ± 0.02 |
| GCCCGGGGTA | 1.09 ± 0.12 |
| GCCCGTCTGA | 0.985 ± 0.075 |
| GCCCGTTACG | 1.02 ± 0.055 |
| GCCCGTTTTT | 1 ± 0.029 |
| GCCCTGCAAT | 1.17 ± 0.056 |
| GCCCTTGGTT | 1.02 ± 0.074 |
| GCCCTTGTTT | 1.03 ± 0.046 |
| GCCGAAAATA | 0.988 ± 0.012 |
| GCCGAGGGGA | 1.05 ± 0.025 |
| GCCGAGGTGA | 1.09 ± 0.13 |
| GCCGATAGGT | 1.08 ± 0.12 |

| Sequence | switch fluorescence ratio |
| --- | --- |
| GCCGATGCGG | 0.988 ± 0.013 |
| GCCGCAGGGA | 2.3 ± 1.9 |
| GCCGCATTGA | 2.01 ± 0.11 |
| GCCGCCGGGG | 0.996 ± 0.032 |
| GCCGCTAAGG | 0.9968 ± 0.0035 |
| GCCGGGAAAC | 1.043 ± 0.0036 |
| GCCGGGAGTC | 1 ± 0.02 |
| GCCGGGGAGT | 0.989 ± 0.027 |
| GCCGGGGCAA | 1.33 ± 0.024 |
| GCCGGGGCCT | 1.03 ± 0.042 |
| GCCGGGGGCG | 0.982 ± 0.051 |
| GCCGGGGGGA | 1.03 ± 0.086 |
| GCCGGGTTGC | 1.01 ± 0.013 |
| GCCGGTACAA | 1.01 ± 0.073 |
| GCCGGTCGGG | 0.985 ± 0.013 |
| GCCGGTTTTC | 1.03 ± 0.044 |
| GCCGTGTATG | 1.06 ± 0.14 |
| GCCGTTGTGC | 0.984 ± 0.069 |
| GCCTATTTTG | 0.962 ± 0.07 |
| GCCTCTTAAG | 1 ± 0.032 |
| GCCTGAAAAA | 0.986 ± 0.033 |
| GCCTGCATTT | 1.02 ± 0.021 |
| GCCTGCGGGA | 1.1 ± 0.13 |

| Sequence | switch fluorescence ratio |
| --- | --- |
| GCCTGTGGGA | 1.01 ± 0.035 |
| GCCTTACATT | 1.01 ± 0.039 |
| GCCTTCAATA | 1.0946 ± 0.00028 |
| GCCTTCGAGG | 1.03 ± 0.012 |
| GCCTTCGGAA | 3.13 ± 0.065 |
| GCCTTGATCT | 0.996 ± 0.016 |
| GCCTTTAGCT | 0.943 ± 0.011 |
| GCGAAAGTTG | 1.014 ± 0.0032 |
| GCGAAATGTG | 1.03 ± 0.013 |
| GCGAAGGCTT | 1.017 ± 0.0095 |
| GCGAAGGGGG | 1.03 ± 0.067 |
| GCGACATCGT | 1.027 ± 0.0091 |
| GCGACCGTGT | 0.9908 ± 0.0014 |
| GCGACGAGGG | 1.033 ± 0.0017 |
| GCGACGGGAA | 1.34 ± 0.09 |
| GCGACGGGT | 1.02 ± 0.06 |
| GCGACTGCGG | 0.982 ± 0.021 |
| GCGAGAGGGA | 1.01 ± 0.013 |
| GCGAGATGCG | 0.972 ± 0.032 |
